Source: the supplement of paper PMC10567573
± gives the standard deviation.

Experiment: protein stability index of a GFP-peptide fusion (GPS, HEK-293T) (PSI 1-6); higher = more stable
[1] = treatment: DMSO, c terminus: a fixed tail appended
[2] = treatment: MLN4924 1 uM, 8 h, c terminus: a fixed tail appended
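Also: 24-mer peptide tiles fused after GFP, lentivirally expressed, FACS-sorted into six equal bins by GFP/DsRed ratio, decoded by Illumina sequencing, PSI is the read-weighted mean bin number.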

Sequence	protein stability index [1]	protein stability index [2]	protein stability index (treatment: DMSO, c terminus: native)	protein stability index (treatment: MLN4924 1 uM, 8 h, c terminus: native)
VELLLARKISVNAKDEDQWTALHF [RIPK4]	2.91 ± 0.82	1.83 ± 0.4		
LEELGTLNVFQTVSRMRTQRAFSI [PTPN9]	2.48 ± 0.12	2.23 ± 0.17		
RRPSPVLRHLELLDEFARENIDSL [SCNN1D]	3.31 ± 0.51	3.56 ± 0.38		
DFCKVFLISGVTLDNCVEVGRIAN [KLHL13]	2.47 ± 1.2	2.12 ± 0.47		
LICLKKNHEEEVNTLRSQLGDRLN [KRT34]	3.33 ± 0.21	3.45 ± 0.37		
EPFSARVLVLCVFNSILPGVLILF [SOAT1]	3.05 ± 0.14	3.06 ± 0.22		
LKGYLYAVGGRNAAGELPTVECYN [KLHL13]	2.37 ± 0.51	2.67 ± 0.34		
GTIHALIFAWNKWIDIKQFVWYTP [STEAP1]	3.28 ± 0.26	2.18 ± 0.11		
VLDILTEQREWVLKSSILIAMAVY [INTS3]	2.57 ± 0.33	2.48 ± 0.61		
AYGNRTECRNPQELESIRQDRDAL [FEM1B]	4.71 ± 0.24	4.68 ± 0.16		
VSEFLKVAEQVGIDKGDIPDLTQA [SNAP91]	4.18 ± 0.45	4.13 ± 0.44		
VKMALDIEIATYRKLLEGEESRIS [PRPH]	2.61 ± 0.13	2.7 ± 0.39		
NTEERQKRQVTHFQFLSWPDYGVP [PTPN9]	3.17 ± 0.57	3.042 ± 0.028		
ETQLKTLAQFPNTLLGNPKKRMRY [KCNA1]	3.25 ± 0.46	3.61 ± 0.46		
DALGMDPMMEHEMGGHHPGADYPV [CTNNB1]	4.51 ± 0.36	4.55 ± 0.16		
PRFHMACPTFRVSIARLEMGPDEY [FBXO3]	2.82 ± 0.21	2.72 ± 0.24		
RESERRNHSLARHADILAAVETRL [FBXO28]	3.71 ± 0.15	3.9 ± 0.27		
FIQKRCNSLLEEETILHFFVQILL [NEK8]	2.41 ± 0.36	2.28 ± 0.47		
VASNSELVQSSRSEVTELRRVLQG [KRT16]	4.33 ± 0.36	4.47 ± 0.27		
PTGDVLLDEALKHVKETQPPETVQ [GOLPH3]	5.32 ± 0.1	5.21 ± 0.1		
KEAVTGSRLGQGIGPIHLNEIQCT [LOXL2]	3.77 ± 0.61	3.93 ± 0.47		
SLSAALLTAALLTFDTGCLTLSQY [POMT2]	3.29 ± 0.32	3.11 ± 0.43		
DEDEVAAEEPNAAVPDEIPPLEGD [HSP90AB1]	5.49 ± 0.47	5.61 ± 0.24		

Sequence	protein stability index [1]	protein stability index [2]	protein stability index (treatment: DMSO, c terminus: native)	protein stability index (treatment: MLN4924 1 uM, 8 h, c terminus: native)
VAGMPTAYDLSSVIASGSSVGHNN [CARM1]	3.86 ± 0.19	3.86 ± 0.23		
RKLSSAVRSGIVEYLSLVKGGQDV [PRIM1]	2.68 ± 0.36	2.77 ± 0.36		
TAVAQGGWRSLWLGWGPTALRDVP [SLC25A39]	2.45 ± 0.14	1.89 ± 0.17		
TGYLSTMVGLILGPFGINHGIELH [PCMTD1]	3.29 ± 0.44	3.35 ± 0.25		
HCASPPPSSNNKELFYRVNYIGTK [NSDHL]	3.18 ± 0.17	3.31 ± 0.19		
GGGSNNGKTPVCHQCHKVIRGRYL [PDLIM7]	2.81 ± 0.52	3.07 ± 0.42		
WRFVLQRLVFLAAFVVYLETETLV [TSN]	2.68 ± 0.54	3.66 ± 0.17		
MVPHNLETTERMKCLYYLYATLDL [PDS5B]	2.14 ± 0.29	2.16 ± 0.38		
KSQIMSLSHSPQEDWVLLGMANGQ [TLE6]	3.15 ± 0.2	3.12 ± 0.17		
EILTKESNVQEVRCPVTVCGDVHG [PPP2CA]	3.69 ± 0.57	3.79 ± 0.12		
DGEVPQHAGKKGKLSEHLRYCDSI [BRD3]	4.59 ± 0.23	4.76 ± 0.23		
SFMDGYKQKNAYIGTQGPLENTYR [PTPN9]	3.04 ± 0.16	2.92 ± 0.24		
RQLEIMGKEVSGDQIEDMFEQGKW [STX11]	3.73 ± 0.13	3.56 ± 0.2		
LHLASDFFLKHPDKDVRLLVACCL [PDS5B]	2.23 ± 0.79	2.39 ± 0.43		
YVPEKVKKAEKKLEENPYDLDAWS [CSTF3]	3.06 ± 0.62	3.26 ± 0.87		
AAKQNHVTADDFVQTSVIGSNGYI [EHMT1]	3.56 ± 0.17	3.68 ± 0.1		
PADSFESPLTLAACGGHVELAALL [ANKRD17]	2.87 ± 0.32	3.14 ± 0.28		
KGALQKKPLYVAFSFMYILVGLTV [KCNK9]	3.46 ± 0.47	2.85 ± 0.51		
PPVSQSRSLFSSVPSKPPMSLEPQ [ANKRD40]	4.53 ± 0.11	4.68 ± 0.4		
SAQAPPDSISLHQPCNPPAPAGDK [DMRTC1]	5.38 ± 0.13	5.28 ± 0.28		
MGGAVSAGEDNDDLIDNLKEAQYI [PCMTD1]	4.82 ± 0.086	4.64 ± 0.17		
VWSCEGCKAFFKRSIQGHNDYICP [ESR2]	2.32 ± 0.16	2.15 ± 0.11		
MQELTEMLGFRPYRFYFYMWKFVS [SLC6A17]	2.39 ± 0.21	2.35 ± 0.35		

Sequence	protein stability index [1]	protein stability index [2]	protein stability index (treatment: DMSO, c terminus: native)	protein stability index (treatment: MLN4924 1 uM, 8 h, c terminus: native)
HDYHGILVDEEEKVLIQKNLGPKS [ADD1]	4.79 ± 0.33	4.9 ± 0.075		
TANCEACTLGICGQGLKSYMTKPS [RTP4]	2.89 ± 0.025	3.01 ± 0.26		
WYFWGETFQNSVFVATFLRYAVVL [SCD]	3.37 ± 0.33	3.36 ± 0.85		
HTSVVCYLLDYPNNLLSAPPPDVT [ANKRD17]	2.46 ± 0.39	2.26 ± 0.44		
LYLLSGSIIAVAMQRGARLPAEVA [POMT2]	2.81 ± 0.38	3.21 ± 0.77		
TIKSLSAELLKANEIIKKLQGDLK [SASS6]	2.16 ± 0.48	2.37 ± 0.36		
RIIYMLLITIATFQIAANLSMERY [SLC19A2]	3.32 ± 0.31	2.91 ± 0.12		
SLVLILSLSYTVLIVGRIAIGVSI [SLC2A12]	2.94 ± 0.2	3.41 ± 0.33		
TRQLSLAVKDGLIVETLTVGCKGS [ZMYND11]	3.17 ± 0.15	3.49 ± 0.26		
ELPAPAEVAAKNQSLEGDTTKGTS [MLH1]	5.61 ± 0.14	5.59 ± 0.16		
STNRRRLSELLRYHTSQSGDEMTS [HSP90AB1]	3.85 ± 0.15	4.11 ± 0.12		
PGASTEEVKRAFFSKSKELHPDRD [DNAJC4]	5.12 ± 0.28	5.18 ± 0.079		
SQQLQLIDEQDSYIQSRADTMQNI [STX5]	4.59 ± 0.21	4.74 ± 0.26		
PEPPAAVDFLEPDSGTCPEVDEEG [FCHO1]	5.48 ± 0.26	5.54 ± 0.21		
TFNFISSLKAICTEIANCSLKVKF [PLD5]	2.68 ± 0.56	3.29 ± 0.1		
LRHDEVRTYFHEFGHVMHQICAQV [NLN]	2.31 ± 0.12	2.22 ± 0.26		
QCPEPPIVVHCSAGIGRTGTFCSL [PTPN9]	2.17 ± 0.26	2.14 ± 0.12		
STLKKALPTLSHIQEAQSAWKDDF [YJU2B]	3.53 ± 0.36	3.75 ± 0.09		
LAGQKDELQLSDLLKQGYNKTLLR [PKD2L1]	3.24 ± 0.23	3.39 ± 0.4		
DLLSCSNFAVQHRYLFEEDNLLRS [MATN2]	2.42 ± 0.18	2.43 ± 0.47		
LRGPSPWGFRLVGGRDFSAPLTIS [PDLIM4]	2.79 ± 0.2	2.44 ± 0.22		
TVEDLFYNIATRRKALKNPSEEYG [MLH1]	3.02 ± 0.8	3.06 ± 0.1		
AGGAPGSPIPSPPGPGDDLCSDLE [HES6]	5.51 ± 0.45	5.34 ± 0.4		

Sequence	protein stability index [1]	protein stability index [2]	protein stability index (treatment: DMSO, c terminus: native)	protein stability index (treatment: MLN4924 1 uM, 8 h, c terminus: native)
YKVKERLGTLKNPPKKKMKLMSG [LCOR]			2.51 ± 0.41	3.27 ± 0.068
RKRKQSGHSPARAGKQRMKEKEQE [DDIT3]	5.15 ± 0.34	5.51 ± 0.38		
NELVKCIEELCQKREELCRQIQEE [SSNA1]	3.62 ± 0.33	3.76 ± 0.26		
NATDPDEGTNGQLDYSFGDHTSEA [PCDHGC5]	5.45 ± 0.32	5.24 ± 0.12		
ALSFTLLGSAPLDQEPLLSIDLGT [NEK8]	2.29 ± 0.36	2.44 ± 0.23		
EILYPALPTDGSTGVELAPRSAEP [PCDHGA10]	4.57 ± 0.23	4.85 ± 0.1		
IIELRRTVNALEIELQAQHSMRNS [KRT36]	2.38 ± 0.26	2.32 ± 0.33		
VNMYVSIVFFGLISFDRYYKIVKP [P2RY14]	3.66 ± 0.41	3.06 ± 0.28		
CAERLQSEEQVSKNLFGPPLESAF [FCHO1]	3.36 ± 1.1	3.58 ± 0.52		
TEKQNFLLFDMTTHPVTNTTEKQR [GOLPH3L]	4.31 ± 0.18	4.4 ± 0.32		
RRKDVCQAIDHGCEHICVNSDDSY [MATN2]	4.34 ± 0.22	4.53 ± 0.33		
VSNFLKERTGFSIRPVAGYLSPRD [TPH1]	2.71 ± 0.33	2.95 ± 0.31		
KEPATMSWLEENVHEVLQAVDAGD [TCF25]	5.05 ± 0.25	5.13 ± 0.17		
FTCDLQHTETGEEVLRMCVAVKKK [VPS39]	2.84 ± 0.3	2.96 ± 0.4		
GLPRSRDCRVDLGSEVYRMLREPA [PDLIM4]	3.08 ± 0.15	3.39 ± 0.2		
GASTSCLLPVQVVTEHPLELIRVE [PCDHGC5]	3.12 ± 0.62	3.29 ± 0.37		
KSRLVQLPPVAVRSLQDLARIAIR [PCMTD2]	3.52 ± 0.19	3.7 ± 0.073		
EYVPGGELFSYLRNRGRFSSTTGL [PRKX]	2.53 ± 0.18	2.82 ± 0.27		
TTPLQLAIIRERSSCVKILLDHNA [ASB7]	2.26 ± 0.16	2.34 ± 0.22		
ANFSLGSINQRLNKRERSKLKNLR [RNF180]	2.91 ± 0.35	3.28 ± 0.43		
